Experimental data as given in paper PMC8020832.
Positions count from the first letter of the chain named. In names and notes the source's numbering stands.

B1: 2411a revertant of heavy chain Y33V/M34L (CDR H1) (antibody, V domains shown)
VH: QVQLVQSGAEMKKPGASVRVSCEASGYTFTDYYMHWMRQAPGQGIEWLGWIKPRYGAVNYAHKFQGRVSMTRDTSIDTAYLELINLRSDDTAIYYCARSFDSDYEWWFTYWGQGTLVSVSA
VL: EIVLTQSPGTLSLSPGERATLSCRASYFISRDYLAWYQQRPGQAPKLLIYGTTTRASGIPDRFSGSGSGTDFTLTISRLEPEDFAVYYCQQYEFFGLGTKVEIK
B2: 2411a revertant of heavy chain N52K (CDR H2) (antibody, V domains shown)
VH: B1 VH with Y33V, M34L, K52N
VL: B1 VL
B3: 2411a revertant of heavy chain N53R/S54Y (CDR H2) (antibody, V domains shown)
VH: B1 VH with Y33V, M34L, R54N, Y55S
VL: B1 VL
B4: 2411a revertant of heavy chain G56A/T57V (CDR H2) (antibody, V domains shown)
VH: B1 VH with Y33V, M34L, A57G, V58T
VL: B1 VL
B5: 2411a revertant of heavy chain Q61H (CDR H2) (antibody, V domains shown)
VH: B1 VH with Y33V, M34L, H62Q
VL: B1 VL
B6: 2411a revertant of light chain Q27Y (CDR L1) (antibody, V domains shown)
VH: B1 VH with Y33V, M34L
VL: B1 VL with Y27Q
B7: 2411a revertant of light chain S27aF (CDR L1) (antibody, V domains shown)
VH: B1 VH with Y33V, M34L
VL: B1 VL with F28S

Each binder was assayed against 18 Env antigens (assay: ELISA).
B1 was tested, and the mean fold change in ELISA binding titer (OD450) versus parental 2411a was 3.9 fold. In the case of B2, the mean fold change in ELISA binding titer (OD450) versus parental 2411a is reported as 5.4 fold. For B3, the mean fold change in ELISA binding titer (OD450) versus parental 2411a was 6.5 fold. With B4 the mean fold change in ELISA binding titer (OD450) versus parental 2411a was 5.5 fold. Binder B5 has a mean fold change in ELISA binding titer (OD450) versus parental 2411a of 1.4 fold. In the case of B6, the mean fold change in ELISA binding titer (OD450) versus parental 2411a is reported as 1.8 fold. B7 was tested, and the mean fold change in ELISA binding titer (OD450) versus parental 2411a was 1.6 fold.
